Laboratory results published in US20260234236A1 (INTERVET, published 2026).

T1: Canine IL-4 with C-terminal Avi-HIS tag (canine, biotin label when loaded on SA biosensors (Example 4); site not stated)
T1 construct: also called cIL-4; biotinylated avitag-cIL-4
T1 chain: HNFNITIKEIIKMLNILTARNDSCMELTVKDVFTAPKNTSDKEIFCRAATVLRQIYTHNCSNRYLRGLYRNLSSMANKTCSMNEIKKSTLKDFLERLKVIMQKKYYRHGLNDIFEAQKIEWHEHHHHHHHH

T2: Canine IL-13 with C-terminal Avi-HIS tag (canine, biotin label when loaded on SA biosensors (Example 4); site not stated)
T2 construct: also called cIL-13; biotinylated avitag-cIL13
T2 chain: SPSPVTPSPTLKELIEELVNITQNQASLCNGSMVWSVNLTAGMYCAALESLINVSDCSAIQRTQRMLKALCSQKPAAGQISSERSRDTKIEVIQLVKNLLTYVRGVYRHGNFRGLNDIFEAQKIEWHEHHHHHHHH


Experiments:
[1] = molecular target: T1, Canine IL-4 with C-terminal Avi-HIS tag; test: BLI (OCTET HTX); biotin-cIL-4 on SA biosensors, scFv in solution; 1:1 model
Protocol: (§1) The in vitro binding of anti-canine IL-4 scFv and IL-13 scFv to canine IL-4 and canine IL-13, respectively, was determined by OCTET HTX using SA biosensors and Data Acquisition 12.0 software. First, biotin-labeled antigen (cIL-4 or cIL-13) was loaded onto the pre-rehydrated SA biosensors for 60 seconds (60s) at a concentration of 5 μg/mL. Second, the biosensors were placed into the OCTET Kinetics Buffer (PBS+0.02% Tween20, 0.1% BSA) for the blocking phase for 120s. Third, for the association phase, cIL-4 or cIL-13 antigen loaded biosensors were placed into 2-fold serial dilutions from 500 nM down to 7.8 nM of anti-cIL-4 or anti-cIL-13 scFvs, respectively, in OCTET Kinetics Buffer for 60s. The last well was buffer alone and that sensor was used for reference sensor subtraction. Finally, the biosensors were placed into OCTET Kinetics Buffer for the dissociation phase for 300s. The analysis was performed using Data Analysis 12.0 software and curves were fitted using a 1:1 binding model.

[2] = molecular target: T2, Canine IL-13 with C-terminal Avi-HIS tag; test: BLI (OCTET HTX); biotin-cIL-13 on SA biosensors, scFv in solution; 1:1 model
Protocol: as §1

Binder	Kd [1]	koff [1]	kon [1]	Kd [2]	koff [2]	kon [2]
IL4 P4A-2 G11 scFv (scFv, scFv purified from E. coli periplasm on Ni-NTA) scFv: DIVMTQTPLSLSVSPGEPASISCKASQSLLYSDGNTYLYWFRQKPGQSPQRLISLVSNRDAGVPDRFSGSGSGTDFTLRISRVEADDAGVYYCGQGIQDPITFGKGTHLEIKGGSSRSSSSGGGGSGGGGEVPLVESGGDLVKPGGSLRLSCVASGFPFRSYGMNWVRQSPGGGLQWVAGILFDGSATAYADAVRGRFTISRDNAKNTLYLQMNSLRAEDTAVYYCASDDGSYIEAYNWFYYWGQGTLVTVSSASTTAPSVTSGQAGQ	8.5 nM	0.00117 s⁻¹	137000 M⁻¹ s⁻¹			
IL4 P4-1 A10 scFv (scFv, scFv purified from E. coli periplasm on Ni-NTA) scFv: QSVLNQLPSVSGSLGQKVTIRCSGNTDNIGMVGAAWYRQVPGEAPKLLLYSDGNRPSGVPDRFSGSDSGRSATLTITGLQPEDEADYYCQSLDPTVPGNYLFGSGTQLTILGGGSSRSSSSGGGGSGGGGEVQLVESGGDLVKPGGSLRLSCVASGFTFSDYDMTWVRQAPGKGLQWVADINNGGSSTTYADAVKGRFTISRDNAKNTLYLQMNSLRAEDTAMYYCAKEGDNTWLSFDSWGQGTLVTVSSESPSPPNLTSGQAGQ	9.92 nM	0.011 s⁻¹	954000 M⁻¹ s⁻¹			
IL4 P4A-1 A4 scFv (scFv, scFv purified from E. coli periplasm on Ni-NTA) scFv: SYVLSQPPSVSVTPSETAHITCGGNNIGSKYVQWIRQSAGQAPVTIIYGNTNRPTGIPERFSGANSGNTATLTISGVLAEDEADYYCQVGDTDTTVFGGGTHLTVLGGGSSRSSSSGGGGSGGGGEVQLVESGGDLVKPGGSLRLSCVASGFNFSRYSMSWVRQAPEKGLQLVAAVNSGGSRTWYADAVQGRFTVSRDNAKNTLFLEMSSLKLEDTAMYYCAKDLWSTTIAEYDYWGQGTLVTVSSASTTAPSVTSGQAGQ	52 nM	0.0373 s⁻¹	704000 M⁻¹ s⁻¹			
IL4 P4A-1 F10 scFv (scFv, scFv purified from E. coli periplasm on Ni-NTA) scFv: QTVVTQEPSLSVSPGGTVTLTCGLSSGSVSTGNYPGWYQQTQGRAPRSIIYDTNSRPSGVPDRFSGSISGNKAVLTITGAQPEDEADYYCSLYTGIAYTDVVFGGGTHLTVLGGGSSRSSSSGGGGSGGGGEVQLVQSGGDLVKPAGSLRLSCVASGFTFNSYAMSWVRQAPGKGLQWVAGINSGGSTTTYADAVKGRFTISRDNAKNTLYLQMNSLRAEDTAVYYCAKDQNSYYPSDTFEYWGQGTLVTVSSESPSPPNLTSGQAGQ	12.7 nM	0.00396 s⁻¹	311000 M⁻¹ s⁻¹			
IL4 P4A-1 E10 scFv (scFv, scFv purified from E. coli periplasm on Ni-NTA) scFv: QSVLNQPPSVSAALGQRVTVSCTGTDTNIGSGYDVQWYQQVPGKSPTPIIYGNTNRPSGVPERFSGSKSGNTATLTITGIQAEDEADYYCQSFDDNVDGYVFGSGTQLTILGGGSSRSSSSGGGGSGGGGEVPLVESGGDLVKPGGSLRLSCVASGFTFSDYHMSWVRQAPGKGLQWVADISSSGSTYYADAVKGRFTISRDNAKNTLYLQMNSLRAEDTAVYYCARQWGEFDYWGQGTLVTVSSESPSPPNLTSGQAGQ	10.3 nM	0.00173 s⁻¹	194000 M⁻¹ s⁻¹			
IL13 P4A-2 E11 scFv (scFv, scFv purified from E. coli periplasm on Ni-NTA) scFv: QSALTQTASVSGSLGQRVTISCTGATRNVGTVGVTWYQQVPGKAPKLLLFSNGDRPSWVPDRFSGSTSGYSATLIINGVQAEDEAMYHCQSFDTMPDAHYMFGSGTQLTVLGGGSSRSSSSGGGGSGGGGELTLQESGPGLVKPSQTLSLTCVVSGASVTSTNYWNWIRQRPGRGLEWMGYWTGSTKYNPAFQGRISITADTAKNQFSLQLSSMTTEDTAVYYCARSSTWINGFDYWGQGTLVTVSSESPSPPNLTSGQAGQ				26.8 nM	0.00466 s⁻¹	174000 M⁻¹ s⁻¹
IL13 P2-1 H5 scFv (scFv, scFv purified from E. coli periplasm on Ni-NTA) scFv: QSVLNQPPSVSAALGQRVTISCTGTNTNIGSGYSVQWYQQLPGESPKPIIYGSSNRPSGVPARFSGSKSGSTGTLTITGIQAEDEADYHCQSYDDSLDGHAVFGGGTQLTVLGGGSSRSSSSGGGGSGGGGEVQLVQSGGDLVKPGGSLRLSCVASGFTFSGYDMSWVRQSPGKGLQWVATVWSDGNTIYYADAVKGRFTISRDNAKNTVYLQMNSLRAEDTAMYYCAKSPYCTDDYCPWGDYLDLWGQGTLVTVSSASTTAPSVTSGQAGQ				9.09 nM	0.00291 s⁻¹	321000 M⁻¹ s⁻¹
IL4 P3-1 B10 scFv (scFv, scFv purified from E. coli periplasm on Ni-NTA) scFv: QSVLTQPTSVSAALGQRVTISCTGSNANIGSVYDVQWYQQLPGKSPKTIIYGNTHRPSGVPVRFSGSKSGSTATLTITGIQAEDEADYYCQSYDATLHYVFGSGTQLTVLGGGSSRSSSSGGGGSGGGGEVQLVESGGDLVKPGGSLRLSCVASGFTFSNYDMSWVRQAPGKGLQWVSTISYDGNNTYYSDAVKGRFTISRDNARNTLYLQMNSLRAEDTAVYYCAKEFDIPWDNFDYWGQGTLVTVSSASTTAPSVTSGQAGQ	4.57 nM	0.00522 s⁻¹	1.14e+06 M⁻¹ s⁻¹			
IL4 P3-1 D7 scFv (scFv, scFv purified from E. coli periplasm on Ni-NTA) scFv: QSMLTQPASVSGSLGQRVAISCSGSTNNIGIFGATWYQHLPGKAPKFLLYSDGNRPSGVPDRFSGSDSGNSVTLMITALQAEDEADYYCQSFDTTLGAYVFGSGTQLTILGGGSSRSSSSGGGGSGGGGEVQLVQSGGDLVKPGGSLRLSCVASGFAFNGYDMDWVRLAPGKGLQWLSEISSSGSPTYYADAVEGRFTISRDNAKNTLYLQMDSLRAEDTAVYYCARAGEYTYGYEGYYFDYWGQGTLVTVSSASTTAPSVTSGQAGQ	17.5 nM	0.00729 s⁻¹	391000 M⁻¹ s⁻¹			
IL13 P3-05 scFv (scFv, scFv purified from E. coli periplasm on Ni-NTA) scFv: SYVLTQPPSVTVPLRQTARISCGGDNIRSKNVHWYQQKPGQAPVLIIYNDSNRPTGIPERFSGSNSGNMATLTIRGALAEDEADYYCQVWANDGYVFGSGTQLTVLGGGSSRSSSSGGGGSGGGGEVQLVESGGDSVRPGGSLRLSCVASGFTFSRYNMGWVRQAPGKGLQWVAWIYDGGSRTSYADAVKGRFTISRDNAKDTLYLQMDDLRVDDTAVYYCARDPSSWGSLFDYWGQGTLVTVSSASTTAPSVTSGQAGQ				59.7 nM	0.00487 s⁻¹	176000 M⁻¹ s⁻¹

Continued by falling Kd [1], values first:

Kd [1]	koff [1]	kon [1]	Kd [2]	koff [2]	kon [2]	Binder
4.5 nM	0.00108 s⁻¹	241000 M⁻¹ s⁻¹				IL4 P3-1 B9 scFv (scFv, scFv purified from E. coli periplasm on Ni-NTA) scFv: QAVLTQPASVSAALGQRVTISCTGTATNVGGGYDVQWYQQFPGRPPKTIIYGNYNRPSGVPDRFSASTSGTTATLTITGIQVADEADYYCQSFDTTFNGHVFGAGTQLTILGGGSSRSSSSGGGGSGGGGELQLVELGGDLVKPGGSLRLSCVASGFTFSSYGMSWVRQSPGKGLQWVADISSSGSTYYADAVKGRFTISRDNAKSTLYLQMNSLRAEDTAVYYCAKAGYGSYYDFGMDYWGHGTSVFVSSESPSPPNLTSGQAGQ
4.38 nM	0.00775 s⁻¹	1.52e+06 M⁻¹ s⁻¹				IL4 P4A-2 D11 scFv (scFv, scFv purified from E. coli periplasm on Ni-NTA) scFv: QAVLTQPPSVSAALGQRVTISCSGSTDNVGTVGASWYQHLPGRAPKLLVYIVGDRPSGVPDRFSGSKSGTSATLTITGLQAEDEADYYCSSWDDSLRGIVFGGGTHLTVLGGGSSRSSSSGGGGSGGGGEEQLVEFGGDLVKPGESLRLSCVASGFTFNKYDMSWVRQAPGKGLQWVATVADDESFAYYTDSVKGRFTISRDNAKNTLYLQMNSLRAEDTAMYYCVGKTGSYWDIDFDLWGPGTLVTISSASTTAPSVTSGQAGQ
4.13 nM	0.000547 s⁻¹	132000 M⁻¹ s⁻¹				IL4 P3-1 C4 5LC scFv (scFv) scFv: QAVLNQPASVSGSLGQRVTISCSGSTNNIGVVGASWYQQFPGKAPKLLVYSDGDRPSGVPDRFSGSNSGYSDTLTITGLQAEDEADYYCQSFDTTLNAYVFGSGTQLTVLGGGSSRSSSSGGGGSGGGGEVPLVESGGDLVKPGGSLRISCVASGITFNNDDMGWVRQAPGKGLQWLAEISSSGTSTYYADAVKGRFTISRDNAKNTVYLQMNSLKAEDTGVYYCVGEDGYMALGFWGQGTLVTVSSASTTAPSVTSGQAGQ
3.94 nM	0.00247 s⁻¹	594000 M⁻¹ s⁻¹				IL4 P4-1 G3 scFv (scFv, scFv purified from E. coli periplasm on Ni-NTA) scFv: QSVLNQLPSLSMNMGETATFTCEGDNIGHKYVNWYQQKPGQAPVLTIYEDNKRPSGIPERFSGSNSGNTATLTISGARAEDEADYYCESEVSTGIVFGGGTHLTVLGGGSSRSSSSGGGGSGGGGEVQLVESGGDLVKPGGSLRLSCVASGFTFSSYDMDWVRQAPGKGLEWLSEISTNGDRTHYADAVKGRFAISRDNAKNTVYLQMNSLRAEDTAIYYCVRDGYEYLAFDYWGQGTLVTVSSASTTAPSVTSGQAGQ
1.24 nM	0.000272 s⁻¹	219000 M⁻¹ s⁻¹				IL4 P3-1 A6 scFv (scFv, scFv purified from E. coli periplasm on Ni-NTA) scFv: QPVLTQPPSVSAALGQRVTISCNTNIGSPYDVQWYQQLPGKSPKTIIYGNSNRPSGVPVRFSGSKSGSTATLTIAGIQAEDEADYYCQSYDDNVDGYVFGSGTQLTVLGGGSSRSSSSGGGGSGGGGEVPLVESGGDLVKPGGSLRLSCVASGFTFHNYDLSWIRQLPGGGLQWVADIDKSGLTFYADAVKGRFTISRDNAKNTLYLQMNSLRAEDTAVYYCATWPLGSWYTETFEYWGQGTLVTVSSASTTAPSVTSGQAGQ
